Entries after “also recorded” stand apart in the source; their conditions may differ. Where two headings read alike, the source gives them in different places. Positions of bridges follow the written chain, without caps; N, C: chain ends.
T1: ALK2 (Homo sapiens, UniProt Q04771)
T1 sequence (Q04771 21-123 limits assumed): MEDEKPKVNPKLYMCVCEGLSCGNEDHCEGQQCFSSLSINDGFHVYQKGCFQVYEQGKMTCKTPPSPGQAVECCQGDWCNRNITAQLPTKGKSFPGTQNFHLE

B1: BMP-7: bone morphogenetic protein-7; recombinant human BMP7, positive control (protein)
chain: STGSKQRSQNRSKTPKNQEALRMANVAENSSSDQRQACKKHELYVSFRDLGWQDWIIAPEGYAAYYCEGECAFPLNSYMNATNHAIVQTLVHFINPETVPKPCCAPTQLNAISVLYFDDSSNVILKKYRNMVVRACGCH

How the values were obtained:
[1] = target: T1, ALK2; experiment: BMP type I receptor binding, ALK2 ECD
Method: FIG. 31 provides a table indicating a comparison between THR-123 (SEQ ID NO: 1) and BMP-7 for binding to Type I and Type II BMP receptors. Like BMP-7, THR-123 binds to both ALK2 and ALK3 (type I) and BMPR-II (type II) BMP receptors. However, BMP-7, but not THR-123 binds to ALK6 (type I) receptor.
First, specific affinity of the extra cellular domains (ECD) of the several type I receptors of BMPs to THR-123 was analyzed. Binding of cold BMP7 to immobilized receptor ECDs was determined by competition with ^125I-labeled BMP7 and analyzed by Scatchard analysis to determine effective dissociation constants of BMP7 for each of the receptor ECDs. To obtain an estimate of the effective dissociation constant of THR-123 for a particular receptor ECD, the dissociation constant for cold BMP7 was multiplied by the ratio of the ED50 of THR-123 to the ED50 for cold BMP7.

[2] = tested on: MCT cells; experiment: TGF-β-induced EMT in MCT cells (inhibition and reversal); format: cell-based; details: for reversal of EMT: additional 48 h after EMT induction, BMP-7 1 μg/ml; for percentage of cells that regained epithelial characteristics (length to width ratio 3 or less): reversal experiment, MCT cells
Method: FIG. 52A-FIG. 52E THR-123 inhibits epithelial-mesenchymal transition in MCT cells. Inhibition of EMT by THR-123. […] FIG. 52D, FIG. 52E qPCR analysis for mesenchymal marker CTGF (FIG. 52D) and Snail1 (FIG. 52E). Total RNA was extracted from cells. 1 μg of total RNA was used for generating complementary cDNA and subsequently qPCR was performed. N=3. Data was expressed as mean±s.e.m. in the graph.
FIG. 54A-FIG. 54H THR-123 reverses TGF-β-induced EMT in MCT cells. FIG. 54A-FIG. 54E. Cell were induced EMT by 48 h incubation of TGF-β and EGF (FIG. 54E). After induction of EMT, cells are incubated with either BMP-7 (1 μg/ml) (FIG. 54C), THR-123 (10 μM) (FIG. 54D) or control peptide (FIG. 54E) for an additional 48 h. […] FIG. 54F. Ratio of length to width was calculated in reversal experiment. 5 representative pictures of the cells in different areas of the well, were taken by using the inverted microscope. A total of 100 cells were analyzed (20 cells per picture). […] The data are presented mean±s.e.m. in the graph. FIG. 54G: 3 or less in length to width ratio in MCT cell was estimated as epithelial characteristics and the percentage of epithelial characteristics in each experimental setting are estimated. 52% of BMP7 and 41% of THR-123 treated MCT cells regained epithelial characteristics. Experiments were repeated three times.
(§1) EMT was induced in NP1 cells or MCT cells by incubation with 3 ng/ml recombinant human […] for 48 h. When EMT occurred, the medium was removed and replaced with THR-123 (10 μM) or recombinant human BMP7 (100 ng/ml) in DMEM. After 48 h, the cells were characterized by immunocytochemistry using primary monoclonal antibodies to E-cadherin ([…]) and rhodamine-conjugated secondary antibodies (Jackson Immunoresearch, West Grove, Pa.) as previously described. The staining was visualized by fluorescence microscopy and documented representative pictures using Spot advanced software (Carl Zeiss, Oberkochen, Germany). Also protein and total RNA were harvested at the end of experiment. For the morphometric analysis for EMT, length/width of cells in bright field pictures are measured by image J software. The ratio of length/width was calculated.

[3] = tested on: NP-1 cells; experiment: TGF-β-induced EMT in NP-1 cells (inhibition and reversal); format: cell-based; details: added after EMT induction for additional 48 hrs; BMP 7 1 μg/ml, THR-123 10 μM
[4] = tested on: NP-1 cells; experiment: TGF-β-induced apoptosis in NP-1 cells (Annexin V); format: cell-based; details: TGF-β 3 ng/ml 24 h; BMP-7 1 μg/ml, THR-123 10 μM
Method: FIG. 48A-FIG. 48D THR-123 inhibits TGF-β-induced apoptosis in NP-1 cells. NP-1 cells are incubated with TGF-β (3 ng/ml) for 24 h in the presence of indicated molecules. Apoptosis was analyzed by Annexin V labeling (Roche). Representative merged picture (Green: Annexin V and bright field image) of cells treated with TGF-β only (FIG. 48A), TGF-β+BMP-7 (1 μg/ml) (FIG. 48B), TGF-β+THR-123 (10 μM) (FIG. 48C) and TGF-β+ctrl peptide (FIG. 48D).

[5] = tested on: NP-1 cells; experiment: TGF-β-induced EMT in NP-1 cells (inhibition and reversal); format: cell-based; details: for TGF-β-induced E-cadherin loss (co-incubation): 48 h; for TGF-β-induced E-cadherin loss (co-incubation) / TGF-β-induced EMT, cell shape (co-incubation): BMP-7 1 μg/ml, THR-123 10 μM; for E-cadherin expression in TGF-β-incubated cells (reversal) / percentage of cells that regained epithelial characteristics (length to width ratio): NP-1 cells; for TGF-β-induced EMT, cell shape (co-incubation): TGF-β 3 ng/ml with EGF 48 h; for percentage of cells that regained epithelial characteristics (length to width ratio): reversal experiment
Method: FIG. 51A-FIG. 51J THR-123 inhibits epithelial-mesenchymal transition in NP-1 cells. FIG. 51A-FIG. 51E: Bright field image. […] F-J. E-cadherin immunofluorescence labeling. NP-1 cells expressed E-cadherin in cell border (FIG. 51F). […] Representative results are shown.
FIG. 53A-FIG. 53L Reversal of EMT by THR-123 in NP-1 cells A-E: Inverted microscopic pictures. FIG. 53A. Basal polygonal epithelial nature of NP1 cells. FIG. 53B. […] FIG. 53C, FIG. 53D. BMP 7 (1 μg/ml) (FIG. 53C) or THR-123 (10 μM) (FIG. 53D) were added to mesenchymal like cells induced by TGF-β and EGF for the additional 48 hrs. […] FIG. 53E. […] FIG. 53F. Ratio of length to width was calculated in reversal experiment. Five representative pictures of the cells in different areas of the well, were taken by using the inverted microscope. A total of 100 cells were analyzed (20 cells per picture). […] The data are presented mean+s.e.m. in the graph. FIG. 53G. […] Mean plus one SD was estimated as epithelial characteristics and the percentage of epithelial characteristics in each experimental setting were estimated. 18% of BMP7 and 24% of THR-123 treated NP-1 cells regained epithelial characteristics. FIG. 53H-FIG. 53L. Immunofluorescence picture for E-cadherin. TGF-β incubation decreased E-cadherin levels when compare to untreated cells (FIG. 53H, FIG. 53I). […] Representative results from three independent experiments are shown.
as §1

[6] = tested on: UUO animals; experiment: Unilateral ureteral obstruction (UUO), FIG. 33-34; format: in vivo; details: for hydroxyproline content (total collagen) of UUO kidneys: 3-fold increase in vehicle-treated UUO kidneys; for expansion of the interstitial space: UUO animals showed 3 fold expansion
Text: In the animals given BMP-7 or […] Hydroxyproline content, a measure of total collagen, increased 3-fold in the vehicle-treated UUO kidneys compared with sham-operated kidneys. […]

binding to ALK2 [1] | Molecule | binding to ALK2 ([1]; listed as THR-123) | TGF-β induced expression of snail and CTGF (qPCR) ([2]; FIG. 52 D, E) | TGF-β-induced EMT, cell shape (co-incubation) ([2]; TGF-β 2.5 ng/ml 48 h, THR-123 10 μM) | reversal of EMT ([2]; THR-123 10 μM) | percentage of cells that regained epithelial characteristics (length to width ratio 3 or less) [2] | reversal of EMT morphology [3] | TGF-β-induced apoptosis [4] | TGF-β-induced E-cadherin loss (co-incubation) [5] | E-cadherin expression in TGF-β-incubated cells (reversal) [5] | TGF-β-induced EMT, cell shape (co-incubation) [5] | percentage of cells that regained epithelial characteristics (length to width ratio) [5] | hydroxyproline content (total collagen) of UUO kidneys [6] | expansion of the interstitial space [6]
 | (H)-CYFDDSSNVLCKKYRS-(OH) (H-CYFDDSSNVLCKKYRS-OH; disulfide 1-11; SMILES CC(C)C[C@@H]1NC(=O)[C@H](C(C)C)NC(=O)[C@H](CC(N)=O)NC(=O)[C@H](CO)NC(=O)[C@H](CO)NC(=O)[C@H](CC(=O)O)NC(=O)[C@H](CC(=O)O)NC(=O)[C@H](Cc2ccccc2)NC(=O)[C@H](Cc2ccc(O)cc2)NC(=O)[C@@H](N)CSSC[C@@H](C(=O)N[C@@H](CCCCN)C(=O)N[C@@H](CCCCN)C(=O)N[C@@H](Cc2ccc(O)cc2)C(=O)N[C@@H](CCCNC(=N)N)C(=O)N[C@@H](CO)C(=O)O)NC1=O) [SEQ ID NO: 1] | to a small extent; also recorded: binds | inhibited | prevents these phenotypic changes | Reversal of EMT was observed | 41% | reversal of the morphology | decreased apoptosis | prevents E-cadherin loss | reversed E-cadherin expression | prevents these phenotypic changes | 24% | effectively decreased | significantly reduced
binds | B1 |  |  |  | Reversal of EMT was observed | 52% | reversal of the morphology | decreased apoptosis | prevents E-cadherin loss | reversed E-cadherin expression | prevents these phenotypic changes | 18% | effectively decreased | significantly reduced

From US20160058829A1, “ANTI-FIBROTIC PEPTIDES AND THEIR USE IN METHODS FOR TREATING DISEASES AND DISORDERS CHARACTERIZED BY FIBROSIS” (Thrasos Innovation, Inc., priority 2011, published 2016)
